In patent publication US20050191293A1 (Bristol-Myers Squibb, published 2005):

T1: mouse IP-10 (mouse, UniProt P17515 22-98)
T1 construct: Bought (PeproTech 250-16)
T1 sequence: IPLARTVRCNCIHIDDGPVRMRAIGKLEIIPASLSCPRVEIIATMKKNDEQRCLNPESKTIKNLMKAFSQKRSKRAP

T2: human MIG (monokine induced by gamma interferon) (human, UniProt Q07325 23-125)
T2 construct: Bought (PeproTech 300-26; R&D Systems for the migration assay)
T2 sequence: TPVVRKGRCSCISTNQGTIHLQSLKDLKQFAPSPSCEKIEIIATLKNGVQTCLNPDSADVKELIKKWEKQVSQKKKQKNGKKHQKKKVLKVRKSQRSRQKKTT

T3: rhesus monkey IP-10 (rhesus monkey, UniProt Q8MIZ1 22-98)
T3 construct: Made by recombinant expression and purified by standard methods; also called Rhesus IP-10; rrmIP-10
T3 sequence: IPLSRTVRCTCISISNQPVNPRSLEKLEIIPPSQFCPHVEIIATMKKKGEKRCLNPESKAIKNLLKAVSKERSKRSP

T4: human ITAC (interferon-inducible T cell alpha chemoattractant) (human, UniProt O14625 22-94)
T4 sequence: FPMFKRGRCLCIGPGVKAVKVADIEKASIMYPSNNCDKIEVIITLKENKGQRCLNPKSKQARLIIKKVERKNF


Key:
[1] = target: T5, human IP-10 (interferon gamma inducible protein 10) (human, UniProt P02778 22-98); assay: inhibition of 0.100 nM 125I-IP-10 binding to CXCR3-expressing 300.19 cells
T5 construct: Native IP-10 from THP-1 supernatant and from MS patient CSF in the migration assays is also put under this molecule; also called CXCL10; rhIP-10
T5 sequence (P02778 other isoform, or with tags, fused parts or gaps limits assumed): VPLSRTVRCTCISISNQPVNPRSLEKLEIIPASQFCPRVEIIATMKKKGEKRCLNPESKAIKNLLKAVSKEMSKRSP
Method: The cells were grown in RPMI media containing 10% FCS and G418 selection. Prior to use, the cells were washed twice with Hank's Balanced Salt Solution (HBSS) at 4° C. and adjusted to 4×10⁷ cells/ml. Glass fiber plates (Millipore MultiScreen®, Cat. #MAFBNOB50) were blocked with 200 μl of a 0.1% polyethyleneimine solution one day prior to the experiment. On the day of the study, the blocking buffer was aspirated by using a Millipore manifold. The plates were washed three times with 200 μl of binding buffer (50 mM HEPES, pH 7.2, 1 mM CaCl₂, 5 mM MgCl₂, 0.5% BSA). […] The plates were incubated on a plate shaker for 60 minutes at room temperature and washed three times with wash buffer (10 mM HEPES, pH 7.2, 0.5 M NaCl, 0.5% BSA) at a volume of 200 μl per wash. The plates were dried, 25 μl of scintillant was added and the plates were counted on a Wallac Microbeta Counter. Data were analyzed using Prism software and a KD was calculated.
Competition assays were run in a similar manner to the experiment described above. […] Lastly, 25 μl of cells at a density of 1×10⁶ cells per well were added and the plates were incubated on a plate shaker for 60 minutes at room temperature, washed and counted as described above. EC₅₀ values were calculated using Prism software. Kᵢ values (in nM) were determined using the formula: […]

[2] = target: T5, human IP-10 (interferon gamma inducible …); assay: SPR (Biacore), extension of dissociation curve, 37 C
Method: (§1) Binding was measured by flowing the antibody in HBS EP buffer (provided by Biacore AB) at concentrations from 33-267 nM at a flow rate of 40 μl/min. The antigen-antibody association kinetics was followed for 5 minutes and the dissociation kinetics was followed for 8 minutes. The association and dissociation curves were fit to a 1:1 Langmuir binding model using BIAevaluation software (Biacore AB). Data corresponding to the initial few dozen seconds for association and dissociation phases alone were considered for curve fitting to minimize the effect of avidity. The experiments were performed at both 25° C. and 37° C.
(§2) The values were determined by extension of the dissociation curves to get to the time required for the 50% reduction of the Y-axis of the dissociation sensogram.

mouse IP-10 [3] = target: T1, mouse IP-10; assay: ELISA, plate coated with 1 ug/ml antigen
Method: (§3) The plates were washed with PBS/Tween and then incubated with a goat-anti-human IgG Fc polyclonal antibody conjugated with horseradish peroxidase (HRP) for 1 hour at room temperature. After washing, the plates were developed with ABTS substrate (Sigma, A-1888, 0.22 mg/ml) and analyzed by spectrophotometer at OD 415-495.

[4] = target: T2, human MIG (monokine induced by gamma …); assay: ELISA, plate coated with 1 ug/ml antigen
Method: as §3

[5] = target: T5, human IP-10 (interferon gamma inducible …); assay: ELISA, plate coated with 1 ug/ml antigen
Method: as §3

rhesus monkey IP-10 [6] = target: T3, rhesus monkey IP-10; assay: ELISA, plate coated with 1 ug/ml antigen
Method: as §3

[7] = target: T2, human MIG (monokine induced by gamma …); assay: SPR (Biacore), antigen on CM5 chip, antibody 133 nM, 25 C
Method: (§4) The flow was then stopped and dissociation was monitored for 5 minutes. The association and dissociation curves were fit to a Langmuir binding model using BIAevaluation software (Biacore AB).

rhesus monkey IP-10 [8] = target: T3, rhesus monkey IP-10; assay: as above
Method: as §4

[9] = target: T5, human IP-10 (interferon gamma inducible …); assay: SPR (Biacore), extension of dissociation curve, 25 C
Method: as §1, §2

[10] = target: T5, human IP-10 (interferon gamma inducible …); assay: cell-based or functional assay
[11] = target: T4, human ITAC (interferon-inducible T cell …); assay: SPR (Biacore), antigen on CM5 chip, 25 C
Method: as §4

[12] = target: T5, human IP-10 (interferon gamma inducible …); assay: SPR (Biacore), human IP-10 on CM5 chip, 25 C
Method: as §1

[13] = target: T5, human IP-10 (interferon gamma inducible …); assay: SPR (Biacore), human IP-10 on CM5 chip, 37 C
Method: as §1

[14] = target: T5, human IP-10 (interferon gamma inducible …); assay: cell-based or functional assay; remark: listed apart in the source
rhesus monkey IP-10 [15] = target: T3, rhesus monkey IP-10; assay: cell-based or functional assay
[16] = target: T5, human IP-10 (interferon gamma inducible …); assay: cell-based or functional assay; remark: listed apart in the source
mouse IP-10 [17] = target: T1, mouse IP-10; assay: SPR (Biacore), antigen on CM5 chip, antibody 133 nM, 25 C
Method: as §4

[18] = target: T4, human ITAC (interferon-inducible T cell …); assay: as above
Method: as §4

Binder	Ki [1] [nM]	Half-life (dissociation of half of the antibody-antigen complex) [2] [h]	binding result (mouse IP-10 [3])	EC50 [4] [µg/mL]	EC50 [5] [µg/mL]	EC50 (rhesus monkey IP-10 [6]) [µg/mL]	Kd [7] [nM]	Kd (rhesus monkey IP-10 [8]) [nM]	Half-life (dissociation of half of the antibody-antigen complex) [9] [h]	IC50 (nM) for 300.19 Cells: inhibition of IP-10-induced calcium flux in 300.19 cells transfected to express CXCR3 [10] [nM]	IC50 (nM) for HPBL: inhibition of IP-10-induced calcium flux in anti-CD3 activated human PBLs that express CXCR3 [10] [nM]	binding result [11]	Kd [12] [nM]	koff [12] [s⁻¹]	kon [12] [M⁻¹ s⁻¹]	Kd [13] [nM]	koff [13] [s⁻¹]	kon [13] [M⁻¹ s⁻¹]	THP-1 IP-10 IC50: inhibition of migration of CXCR3-expressing 300.19 cells induced by native IP-10 in THP-1 supernatant, MIG blocked by anti-MIG [14] [µg/mL]	rhIP-10 IC50: inhibition of migration of CXCR3-expressing 300.19 cells induced by 100 ng/ml recombinant human IP-10 [14] [µg/mL]	also measured
10A12 human monoclonal antibody (antibody, V domains shown, Human IgG with kappa light chain from a hybridoma of transgenic mice) VH: QVQLVESGGGVVQPGRSLRLSCAASGFTFSNCGMHWVRQAPGKGLEWVALIGFDGINEYYADSVKGRFTISRDNSKNTLYLQMNSLRAEDTAVYYCARDWPEGYYNGMDVWGQGTTVTVSS VL: not shown	0.09	5.05	no binding	0.18	0.04	0.08	161	0.71	9.53	0.18	1.25	no binding (tested: 133 nM)	0.53	2.02e-05	38300	0.34	3.81e-05	111000	–	–	–
7C10 human monoclonal antibody (antibody, V domains shown, Human IgG with kappa light chain from a hybridoma of transgenic mice) VH: QVQLVESGGGVVQPGRSLRLSCAASGFTFSNSGMHWVRQAPGKGLEWVAVIDYDGIIQYYADSVKGRFTISRDNSKNTLYLQINSLRAEDTAVYYCATERGTHYYGSGSFDYWGQGTLVTVSS VL: DIQMTQSPSSLSASVGDRVTITCRASQGISSWLAWYQQKPEKAPKSLIYAASSLQSGVPSRFSGSGSGTDFTLTISSLQPEDFATYYCQQYNSYPPTFGGGTKVEIK	0.41	–	–	–	–	–	–	4.4	–	0.77	8.15	no binding (tested: 133 nM)	0.02	4e-07	17000	0.016	8e-07	52700	–	–	Kd (mouse IP-10 [17]): 464 nM
6B10 human monoclonal antibody (antibody, V domains shown, Human IgG with kappa light chain from a hybridoma of transgenic mice) VH: QVQLVESGGGVVQPGRSLRLSCAASGFTFSNSAMHWVRQAPGKGLEWVALIPFDGYNKYYADSVKGRFTISRDNSKNTLYLQMNSLRAEDTAVYYCAREGGYTGYDGGFDYWGQGILVTVSS VL: EIVLTQSPATLSLSPGERATLSCRASQSVSSYLAWYQQKPGQAPRLLIYDASNRATGIPARFSGSGSGTDFTLTISSLEPEDFAVYYCQQRSNWPPYTFGQGTKLEIK	0.3	0.38	–	0.02	0.03	0.045	15.4	2.01	1.12	0.5	4.4	–	1.78	0.000172	95000	2.54	0.000504	199000	0.193	1.1	rrmIP-10 IC50: inhibition of migration of CXCR3-expressing 300.19 cells induced by 100 ng/ml recombinant rhesus macaque IP-10 (rhesus monkey IP-10 [15]): 0.149 µg/mL; Kd [18]: 51.5 nM

More lines, main results first:

Ki [1] [nM]	Half-life (dissociation of half of the antibody-antigen complex) [2] [h]	binding result (mouse IP-10 [3])	EC50 [4] [µg/mL]	EC50 [5] [µg/mL]	EC50 (rhesus monkey IP-10 [6]) [µg/mL]	Kd [7] [nM]	Kd (rhesus monkey IP-10 [8]) [nM]	Half-life (dissociation of half of the antibody-antigen complex) [9] [h]	IC50 (nM) for 300.19 Cells: inhibition of IP-10-induced calcium flux in 300.19 cells transfected to express CXCR3 [10] [nM]	IC50 (nM) for HPBL: inhibition of IP-10-induced calcium flux in anti-CD3 activated human PBLs that express CXCR3 [10] [nM]	binding result [11]	Kd [12] [nM]	koff [12] [s⁻¹]	kon [12] [M⁻¹ s⁻¹]	Kd [13] [nM]	koff [13] [s⁻¹]	kon [13] [M⁻¹ s⁻¹]	THP-1 IP-10 IC50: inhibition of migration of CXCR3-expressing 300.19 cells induced by native IP-10 in THP-1 supernatant, MIG blocked by anti-MIG [14] [µg/mL]	rhIP-10 IC50: inhibition of migration of CXCR3-expressing 300.19 cells induced by 100 ng/ml recombinant human IP-10 [14] [µg/mL]	Binder	also measured
0.06	4.34	no binding	0.38	0.0049	0.0156	722	1.21	5.94	0.08	2.31	no binding (tested: 133 nM)	0.88	3.24e-05	36800	0.49	4.43e-05	91000	0.211	0.115	10A12S (10A12 with cysteine 32 of VH CDR1 mutated to serine) (antibody, V domains shown) VH: QVQLVESGGGVVQPGRSLRLSCAASGFTFSNSGMHWVRQAPGKGLEWVALIGFDGINEYYADSVKGRFTISRDNSKNTLYLQMNSLRAEDTAVYYCARDWPEGYYNGMDVWGQGTTVTVSS VL: not shown	rrmIP-10 IC50: inhibition of migration of CXCR3-expressing 300.19 cells induced by 100 ng/ml recombinant rhesus macaque IP-10 (rhesus monkey IP-10 [15]): 15.1 µg/mL; Expt. 1 IC50: inhibition of MS-CSF induced migration of CXCR3-expressing 300.19 cells, MIG neutralized by anti-MIG [16]: 0.562 µg/mL; Expt. 2 IC50: inhibition of MS-CSF induced migration of CXCR3-expressing 300.19 cells, MIG neutralized by anti-MIG [16]: 0.577 µg/mL
0.16	0.71	no binding	–	0.09	0.031	–	0.81	1.01	0.3	6.27	no binding (tested: 133 nM)	0.81	0.00019	233000	0.78	0.00027	347000	0.173	0.355	8F6 human monoclonal antibody (antibody, V domains shown, Human IgG with kappa light chain from a hybridoma of transgenic mice) VH: QVQLVDSGGGVVQPGRSLRLSCAASGFTFNTYGMHWVRQAPGKGLEWVAVISYDGIIKHYADSVKGRFTITRDNSKNMVHLQMNSLRAEDTAVYYCARDSSSWYVYFDYWGQGTLVTVSS VL: EIVLTQSPATLSLSPGERATLSCRASQSVSSYVAWYQQKPGQAPRLLIYDASNRATGIPARFSGSGSGTDFTLTISSLEPEDFAIYYCQQRSNSPPWTFGQGTKVEIK	rrmIP-10 IC50: inhibition of migration of CXCR3-expressing 300.19 cells induced by 100 ng/ml recombinant rhesus macaque IP-10 (rhesus monkey IP-10 [15]): 0.1 µg/mL; binding result [4]: no binding
